Assay results reported in US12433934B2, “Methods and compositions for preventing and treating atherosclerosis and related diseases” (Shanghai Puyou Biomedical Co., Ltd., priority 2018, dated 2025).
“Also recorded” adds a separate entry of the source.

B1: sDSS1-M1: sDSS1 mutant protein 1, SEQ ID NO: 15 (protein)
chain: MSEKKQPVDLGLLEEDDEFEEFPAEDWAGLDEDEDAHVWEDNWDDDNVEDDFSNQLRATVLLMILVAETPYGAYVLHQKGRMASAFLAA
B2: sDSS1-M2: sDSS1 mutant protein 2, SEQ ID NO: 16 (protein)
chain: MSEKKQPVDLGLLEEDDEFEEFPAEDWAGLDEDEDAHVWEDNWDDDNVEDDFSNQLRATVLLMILVVETPYGVYVLHQKGRMVSAFLVV

Assays:
ApoE−/− mice = assay: Atherosclerotic plaques of the aorta (en face oil red O staining) in high-fat diet ApoE−/− mice; assay type: in vivo; conditions: ATV 40 mg/kg orally once a day, 13 weeks, high-fat diet
Method: FIGS. 15-16. The sDSS1 protein inhibits the formation of atherosclerotic plaques in ApoE−/− mice. […] At the end of the injection, the aorta was dissected for oil red O staining, and the area of plaques was calculated.
Experimental animals: ApoE−/− mice, 8-week-old, male, were purchased from Nanjing Biomedical Research Institute of Nanjing University. The experimental animals were housed in an animal room for one week before the experiment.
Experimental method: ApoE−/− mice were fed with high-fat diet containing 0.25% cholesterol starting from the age of 9 weeks. From the 10th week of high-fat diet feeding, the mice were randomly divided into three groups according to the total cholesterol level, with 10 mice in each group. […] At the 22nd week of high-fat diet feeding, that is, the 13th week of administration, the animals were executed and dissected, and the whole aorta was separated. The separated aorta was stained with en face oil red O to evaluate the formation of atherosclerotic plaques.

oxLDL = target: T1, oxLDL (Homo sapiens, UniProt P04114); assay: Co-incubation with oxLDL, SDS-PAGE separation, Coomassie brilliant blue staining; assay type: binding; conditions: phosphate buffer pH 7.2
T1 construct: purchased Solarbio H7980
T1 sequence (P04114 28-4563): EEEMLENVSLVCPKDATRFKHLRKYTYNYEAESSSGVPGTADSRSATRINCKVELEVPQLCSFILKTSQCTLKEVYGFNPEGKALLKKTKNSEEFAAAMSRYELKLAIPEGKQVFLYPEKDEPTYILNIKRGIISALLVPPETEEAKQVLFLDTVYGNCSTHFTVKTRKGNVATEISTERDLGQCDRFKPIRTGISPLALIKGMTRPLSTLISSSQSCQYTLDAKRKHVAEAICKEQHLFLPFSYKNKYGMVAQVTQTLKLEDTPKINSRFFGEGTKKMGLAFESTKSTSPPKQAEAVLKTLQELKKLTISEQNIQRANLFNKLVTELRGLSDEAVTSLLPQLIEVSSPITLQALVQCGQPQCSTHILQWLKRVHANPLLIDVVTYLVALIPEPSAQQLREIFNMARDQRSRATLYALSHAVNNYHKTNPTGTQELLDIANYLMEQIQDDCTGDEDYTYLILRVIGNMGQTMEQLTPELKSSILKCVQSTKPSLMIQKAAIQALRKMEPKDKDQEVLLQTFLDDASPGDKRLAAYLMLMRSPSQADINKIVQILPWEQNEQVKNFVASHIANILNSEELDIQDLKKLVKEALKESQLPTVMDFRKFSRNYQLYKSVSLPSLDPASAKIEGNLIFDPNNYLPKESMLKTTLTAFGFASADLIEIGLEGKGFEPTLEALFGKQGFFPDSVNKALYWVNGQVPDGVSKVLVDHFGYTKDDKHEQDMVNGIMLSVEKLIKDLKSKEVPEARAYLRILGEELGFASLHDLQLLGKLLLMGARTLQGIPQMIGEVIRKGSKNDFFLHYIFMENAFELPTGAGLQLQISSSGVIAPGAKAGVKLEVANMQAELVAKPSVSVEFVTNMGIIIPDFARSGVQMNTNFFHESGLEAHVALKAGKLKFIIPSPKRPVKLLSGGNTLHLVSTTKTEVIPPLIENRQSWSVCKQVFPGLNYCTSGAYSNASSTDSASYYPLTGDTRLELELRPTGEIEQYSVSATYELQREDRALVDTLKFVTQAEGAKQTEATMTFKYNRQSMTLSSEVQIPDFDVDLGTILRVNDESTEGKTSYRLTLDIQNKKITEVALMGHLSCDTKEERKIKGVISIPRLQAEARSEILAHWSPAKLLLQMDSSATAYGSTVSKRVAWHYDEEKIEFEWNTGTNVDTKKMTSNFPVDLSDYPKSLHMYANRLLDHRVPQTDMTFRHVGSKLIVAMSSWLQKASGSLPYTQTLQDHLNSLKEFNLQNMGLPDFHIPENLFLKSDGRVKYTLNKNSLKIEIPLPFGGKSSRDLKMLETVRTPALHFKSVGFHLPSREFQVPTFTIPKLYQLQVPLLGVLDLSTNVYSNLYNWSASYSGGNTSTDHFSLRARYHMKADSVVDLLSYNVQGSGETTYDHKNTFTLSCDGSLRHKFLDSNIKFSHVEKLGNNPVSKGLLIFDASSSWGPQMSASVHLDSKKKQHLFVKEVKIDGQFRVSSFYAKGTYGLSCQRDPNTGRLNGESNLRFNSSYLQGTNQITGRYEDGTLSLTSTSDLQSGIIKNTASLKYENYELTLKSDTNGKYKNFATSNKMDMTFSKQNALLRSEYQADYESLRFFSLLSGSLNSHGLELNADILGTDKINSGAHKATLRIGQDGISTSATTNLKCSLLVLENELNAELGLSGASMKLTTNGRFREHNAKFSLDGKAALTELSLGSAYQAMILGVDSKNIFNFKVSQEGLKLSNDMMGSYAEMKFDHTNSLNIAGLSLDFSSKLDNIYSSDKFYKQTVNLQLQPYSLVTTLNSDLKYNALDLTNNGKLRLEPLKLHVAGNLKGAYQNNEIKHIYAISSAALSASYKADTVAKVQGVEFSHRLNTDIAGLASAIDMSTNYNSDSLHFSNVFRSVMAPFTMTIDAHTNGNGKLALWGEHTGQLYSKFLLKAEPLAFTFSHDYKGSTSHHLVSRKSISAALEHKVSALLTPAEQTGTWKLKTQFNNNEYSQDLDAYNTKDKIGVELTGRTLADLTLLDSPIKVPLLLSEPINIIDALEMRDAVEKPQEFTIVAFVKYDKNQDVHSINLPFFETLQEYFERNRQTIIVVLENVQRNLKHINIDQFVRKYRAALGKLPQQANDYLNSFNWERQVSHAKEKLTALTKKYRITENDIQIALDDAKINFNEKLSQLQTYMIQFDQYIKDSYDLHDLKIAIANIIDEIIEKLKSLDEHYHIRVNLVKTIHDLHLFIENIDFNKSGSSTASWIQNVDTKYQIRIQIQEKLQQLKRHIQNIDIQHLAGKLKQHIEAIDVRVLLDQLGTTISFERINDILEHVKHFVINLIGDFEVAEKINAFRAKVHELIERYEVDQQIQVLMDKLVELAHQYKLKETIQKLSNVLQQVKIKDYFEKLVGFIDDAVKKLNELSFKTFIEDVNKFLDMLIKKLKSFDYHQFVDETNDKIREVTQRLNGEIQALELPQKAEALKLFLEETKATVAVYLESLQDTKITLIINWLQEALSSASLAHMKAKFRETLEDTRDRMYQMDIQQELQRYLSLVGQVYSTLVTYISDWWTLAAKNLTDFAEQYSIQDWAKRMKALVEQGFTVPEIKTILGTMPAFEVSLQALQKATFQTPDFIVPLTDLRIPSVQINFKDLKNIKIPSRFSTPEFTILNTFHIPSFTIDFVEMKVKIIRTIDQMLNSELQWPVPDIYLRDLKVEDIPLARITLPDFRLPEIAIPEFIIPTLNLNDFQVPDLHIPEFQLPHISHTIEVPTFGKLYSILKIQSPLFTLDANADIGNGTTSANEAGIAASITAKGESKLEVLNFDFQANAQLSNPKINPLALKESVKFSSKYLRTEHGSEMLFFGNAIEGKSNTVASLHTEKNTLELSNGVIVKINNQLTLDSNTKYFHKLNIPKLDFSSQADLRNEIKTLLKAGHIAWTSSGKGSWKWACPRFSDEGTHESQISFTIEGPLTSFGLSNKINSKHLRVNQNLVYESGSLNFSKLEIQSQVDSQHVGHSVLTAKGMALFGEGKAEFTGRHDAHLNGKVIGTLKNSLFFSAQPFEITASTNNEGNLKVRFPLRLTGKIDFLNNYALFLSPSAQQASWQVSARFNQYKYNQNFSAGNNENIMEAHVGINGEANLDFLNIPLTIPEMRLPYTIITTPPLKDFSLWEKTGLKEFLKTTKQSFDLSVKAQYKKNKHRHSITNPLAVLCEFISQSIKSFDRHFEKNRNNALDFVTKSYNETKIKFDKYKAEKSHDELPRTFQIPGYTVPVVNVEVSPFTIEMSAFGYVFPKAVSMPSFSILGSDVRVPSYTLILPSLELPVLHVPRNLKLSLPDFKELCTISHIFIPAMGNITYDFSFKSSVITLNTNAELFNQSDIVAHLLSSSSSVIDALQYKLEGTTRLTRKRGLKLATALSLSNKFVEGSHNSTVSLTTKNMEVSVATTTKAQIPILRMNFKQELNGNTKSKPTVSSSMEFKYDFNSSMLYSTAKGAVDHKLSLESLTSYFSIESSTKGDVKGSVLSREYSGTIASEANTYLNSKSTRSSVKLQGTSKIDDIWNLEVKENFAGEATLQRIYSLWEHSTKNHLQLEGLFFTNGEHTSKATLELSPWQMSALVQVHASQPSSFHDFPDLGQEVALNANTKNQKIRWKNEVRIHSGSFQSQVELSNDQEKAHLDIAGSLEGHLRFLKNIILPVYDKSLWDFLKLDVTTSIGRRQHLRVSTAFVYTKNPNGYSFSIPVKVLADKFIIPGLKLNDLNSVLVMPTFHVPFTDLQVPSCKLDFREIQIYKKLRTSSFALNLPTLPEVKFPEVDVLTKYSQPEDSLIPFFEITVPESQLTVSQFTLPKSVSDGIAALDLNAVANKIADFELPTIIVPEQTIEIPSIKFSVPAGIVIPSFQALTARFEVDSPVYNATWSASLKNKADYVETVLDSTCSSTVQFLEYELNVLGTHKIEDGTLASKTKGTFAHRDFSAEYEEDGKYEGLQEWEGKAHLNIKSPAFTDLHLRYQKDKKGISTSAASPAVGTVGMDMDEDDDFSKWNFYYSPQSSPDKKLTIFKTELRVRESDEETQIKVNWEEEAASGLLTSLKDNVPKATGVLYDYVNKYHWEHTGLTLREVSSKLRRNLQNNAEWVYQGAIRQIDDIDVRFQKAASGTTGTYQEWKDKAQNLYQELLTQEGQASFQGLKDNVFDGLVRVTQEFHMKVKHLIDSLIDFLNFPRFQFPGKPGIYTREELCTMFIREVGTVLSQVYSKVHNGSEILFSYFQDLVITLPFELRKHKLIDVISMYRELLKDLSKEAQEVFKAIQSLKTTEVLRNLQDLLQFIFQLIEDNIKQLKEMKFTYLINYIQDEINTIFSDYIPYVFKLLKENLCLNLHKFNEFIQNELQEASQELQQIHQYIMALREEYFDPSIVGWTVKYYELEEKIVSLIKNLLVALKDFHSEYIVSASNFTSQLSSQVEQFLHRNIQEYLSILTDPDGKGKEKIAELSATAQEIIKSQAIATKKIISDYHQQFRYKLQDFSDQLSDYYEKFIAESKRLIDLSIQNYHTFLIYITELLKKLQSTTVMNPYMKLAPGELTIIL
Method: Experimental materials: sDSS1 protein, sDSS1 mutant protein 1 (sDSS1-M1, SEQ ID NO: 15), sDSS1 mutant protein 2 (sDSS1-M2, SEQ ID NO: 16), oxidized low density lipoprotein (oxLDL) (Solarbio, Article No.: H7980); low density lipoprotein (LDL) (Solarbio, Article No.: H7960).
Experimental method: 2 μg of oxLDL or LDL was mixed with 6 μg of sDSS1 protein or 10 μg of sDSS1 protein in a 1.5 ml EP tube in the presence of 20 mM sodium acetate/acetic acid buffer (pH 4.5) or 20 mM phosphate buffer (pH 7.2) respectively, and incubated at 37° C. for 12 h. A loading buffer was added in the incubated product and evenly mixed, and the obtained mixture was denatured at 100° C. for 10 min to prepare a loading sample. The resulting sample was subjected to electrophoretic separation via polyacrylamide gel electrophoresis (SDS-PAGE). After separation, the SDS-PAGE gel was stained with Coomassie brilliant blue to display protein strips. The sDSS1-M1 or sDSS1-M2 protein was respectively mixed and incubated with oxLDL, and treated in the same way. 15 μL of the sample was used for SDS-PAGE electrophoresis separation.

| Molecule | Area of atherosclerotic plaques (en face oil red O) vs model group (ApoE−/− mice) | Interaction with oxLDL (complex on SDS-PAGE gel) (oxLDL) |
| --- | --- | --- |
| CC(C)c1c(C(=O)Nc2ccccc2)c(-c2ccccc2)c(-c2ccc(F)cc2)n1CC[C@@H](O)C[C@@H](O)CC(=O)O [ATV, Atorvastatin, reference compound] | significantly reduced | – |
| B1 | – | can also interact with oxLDL to form complexes; also recorded: interacted with the oxLDL protein |
| B2 | – | can also interact with oxLDL to form complexes; also recorded: interacts with the oxLDL protein |
